B1: HDV Ribozyme (parent)
chain: GGCCGGCAUGGUCCCAGCCUCCUCGCUGGCGCCGGCUGGGCAACAUUCCGAGGGGACCGUCCCCUCGGUAAUGGCGAAUGGGACCCA

In this data set the parent is B1. Nature of the data set: self-cleavage, relative activity (ratio to wild type); higher = more cleavage; co-transcriptional.
Regarding C3G A78U, the self-cleavage is 0.125. Then C3G C57U, with 0.75; and C3G C57G, with 0.891; and C3G C7A, with 0.0213.

Regarding C3G G17A, the self-cleavage is 0.102. Then C3G G17U, with 0.073; and C3A G29C, with 0; and C3A G29U, with 0.0316. For C3A C26G, the self-cleavage was 0.415. As for C3G G5C, the self-cleavage was 1.5. As for C3G G5A, the figure is 0.18; as for C3G C48A, 0.698; as for C3G C48G, 0.695. As for C3G C48U, the figure is 0.736; as for G2U G5C, 0; as for G2U G40A, 0.0369. As for G2U G40C, the figure is 0.0455. Consider C3G C18U, for which the self-cleavage was determined as 0.04. Then C3G C18G, with 0.0475. For the variant C3G C18A, the self-cleavage was 0.0542. As for C3A U9A, the figure is 0.657; as for G2U U12A, 0.17; as for C3A C64U, 0.65. As for C3G A45U, the figure is 0.299. Then C3G A45C, with 0.113; and C3G A45G, with 0.816; and C3G C64A, with 0.528.

Turning to C3G C64U, the self-cleavage stood at 0.726. Then C3G C64G, with 0.546; and C3G C14U, with 0.817. Then C3G C14G, with 0.268. C3A C63U: the self-cleavage is 0.559. As for C3A C63G, the figure is 0.285. For the variant C3A C36U, the self-cleavage is 0.0915.

For the variant G2U U37G, the self-cleavage was 0.0422. As for G2U U37C, the figure is 0.0801. As for G2U U37A, the figure is 0.0378; as for C3G C33U, 0.194; as for C3G C33A, 0.0817. Then C3G C33G, with 0.128; and G2U G6C, with 0.106. With G2U G6A, the self-cleavage was 0.0355. G2U G55C: the self-cleavage was found to be 0.116. Then G2U G55A, with 0.0732; and C3A C41G, with 0.0761; and C3A C48U, with 0.635. Consider C3A C48A, for which the self-cleavage stood at 0.839. Then C3G C58G, with 0.796; and C3G A70G, with 0.475; and C3G A70U, with 0.636. As to C3G C13A, the self-cleavage turned out to be 0.0545. Then C3G C13G, with 0.0504. Then C3A A45G, with 0.469; and C3A A45C, with 0.0482; and C3A G80U, with 0.0893. As for C3G G35U, the self-cleavage came to 1.33. Then C3G C4G, with 1; and C3G C4A, with 0.0767; and G2U G28U, with 0.0246. Then C3A A16C, with 0.0875; and C3A A16G, with 0.401.

For the variant C3A U46G, the self-cleavage is 0.026.

Turning to C3U A87U, the self-cleavage was determined as 0.725. Then C3A G38C, with 0; and C3G C19U, with 0.158; and C3G C19G, with 0.0326. Then C3G U23A, with 0.929; and C3G U23G, with 0.0791. With C3A U47G, the self-cleavage worked out at 0.237. Then C3A U47A, with 0.429; and C3A A70U, with 0.437.

Consider G2U U46C, for which the self-cleavage was 0.0213. Then C3A G82C, with 0.056; and C3A G82U, with 0.0831. As for C3G A16U, the figure is 0.655; as for C3G A16C, 0.208. Then C3U A70C, with 0.566; and C3G C32A, with 0. C3G C32G: the self-cleavage is 0.0282. Then C3G C32U, with 0.198; and G2U U65A, with 0.02.

Take G2U G53A: the self-cleavage came to 0.0412. For G2U G53C, the self-cleavage was found to be 0.0647. As for C3U A78C, the figure is 0.04.

For the variant C3U A56G, the self-cleavage worked out at 0.831. Then C3G C21G, with 0; and C3G C21A, with 0. Regarding C3U A83C, the self-cleavage came to 0.318. As for C3U A83G, the figure is 0.554. Then C3G A77U, with 0.0297; and C3G A77G, with 0.237; and G2U U23C, with 0.112. As for C3A C19A, the figure is 0.0199; as for C3A C19U, 0.0134.

As for C3G U37G, the self-cleavage worked out at 0.123.

As to C3G U37A, the self-cleavage came to 0.

With C3A C21U, the self-cleavage came to 0.0314. As for C3A C21A, the figure is 0.0339.

As to C3A A78U, the self-cleavage amounted to 0.0627. As for G2U G80C, the figure is 0.0455; as for G2U G80A, 0.0496; as for G2U G80U, 0.0208. Then C3G A42G, with 0.138; and C3G A42U, with 0.116; and C3U A51G, with 0.577. Then C3A G76C, with 0.604; and C3A G76U, with 0.773; and C3G C84U, with 0.736.

Turning to C3G C84G, the self-cleavage is 0.41. Then C3G G6U, with 0.0665; and C3G C22G, with 0; and C3G C22A, with 0.119. Then C3G C22U, with 0.179; and G2U G29A, with 0.0178. As for C3A C24A, the figure is 0.0268; as for C3A C24U, 0.0755; as for C3G A43U, 0.233. With C3G A43C, the self-cleavage was 0.261. As for G2U C66U, the figure is 0.0895; as for G2U C84U, 0.0604.

Turning to C3A U69G, the self-cleavage was 0.567. Consider C3A U69A, for which the self-cleavage amounted to 0.406. As for C3G G28A, the figure is 0.0326; as for C3G G28U, 0.0357; as for G2U G76U, 0.0762.

Take G2U G76C: the self-cleavage came out at 0.0279.

For C3G U9A, the self-cleavage was found to be 0.799. Then C3G U9G, with 0.789.

As for G2U G68A, the self-cleavage was 0.0264.

Consider G2U U69C, for which the self-cleavage stood at 0. Then C3G C66A, with 0.585. Then C3A G50C, with 0.572. As for C3A U65G, the figure is 0.718. On to G2U U60G, for which the self-cleavage is 0.0831. Take G2U U60A: the self-cleavage was 0.0396. As for C3A C7U, the figure is 0.188; as for C3G U12A, 0.0462; as for C3G U12G, 0.32. Regarding C3A G10U, the self-cleavage was found to be 0.23. Then C3A G10C, with 0.504; and C3A G10A, with 0.335. C3A U72A: the self-cleavage is 0.07.

For the variant G2U G67A, the self-cleavage was determined as 0.0602.

As to G2U G67C, the self-cleavage was determined as 0.0678. As to G2U G67U, the self-cleavage came out at 0.0563. As for C3G G52A, the figure is 0.702. Then C3A C30A, with 0.0393; and C3A C30U, with 0.143. Then G2U G31U, with 0.0268; and G2U G31A, with 0.0578. Regarding G2U G50U, the self-cleavage was 0. Then C3A U20G, with 0.0163.

In the case of C3A U20A, the self-cleavage came out at 0.0683.

Turning to C3A A8G, the self-cleavage was 0.578.

Turning to C3A A8U, the self-cleavage amounted to 0.269. As to C3G C36U, the self-cleavage was 0.155. As for C3G C36A, the figure is 0.0288; as for C3A U27C, 0.217; as for C3U C13A, 0.138. As for C3G G29C, the figure is 0.0396. Then C3G C86G, with 1.14. For C3G C86A, the self-cleavage stood at 0.876. Then C3A A77G, with 0.313; and C3A A77U, with 0.224. With C3A A77C, the self-cleavage was found to be 0.171.

On to C3G G25C, for which the self-cleavage worked out at 0.0292. Then C3G G25A, with 0.0511.

Source of the values: the RNAGym collection of RNA variant scans (doi:10.7554/elife.80360).
